Laboratory results from patent US20110207796.

What was measured:
[1] = test system: human alpha-synuclein (wild-type, recombinant)
[2] = test system: alpha-synuclein A30P familial mutant
[3] = test system: alpha-synuclein A53T familial mutant
[4] = test system: alpha-synuclein E46K familial mutant
beta synuclein = beta synuclein (UniProt Q16143)
Sequence of beta synuclein (Q16143 whole entry): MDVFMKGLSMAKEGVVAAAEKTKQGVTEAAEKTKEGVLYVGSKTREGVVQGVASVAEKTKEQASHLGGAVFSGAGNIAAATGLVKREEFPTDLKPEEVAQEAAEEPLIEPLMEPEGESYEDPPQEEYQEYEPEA

Sequence of Polo like kinase 2 (PLK2) (chain): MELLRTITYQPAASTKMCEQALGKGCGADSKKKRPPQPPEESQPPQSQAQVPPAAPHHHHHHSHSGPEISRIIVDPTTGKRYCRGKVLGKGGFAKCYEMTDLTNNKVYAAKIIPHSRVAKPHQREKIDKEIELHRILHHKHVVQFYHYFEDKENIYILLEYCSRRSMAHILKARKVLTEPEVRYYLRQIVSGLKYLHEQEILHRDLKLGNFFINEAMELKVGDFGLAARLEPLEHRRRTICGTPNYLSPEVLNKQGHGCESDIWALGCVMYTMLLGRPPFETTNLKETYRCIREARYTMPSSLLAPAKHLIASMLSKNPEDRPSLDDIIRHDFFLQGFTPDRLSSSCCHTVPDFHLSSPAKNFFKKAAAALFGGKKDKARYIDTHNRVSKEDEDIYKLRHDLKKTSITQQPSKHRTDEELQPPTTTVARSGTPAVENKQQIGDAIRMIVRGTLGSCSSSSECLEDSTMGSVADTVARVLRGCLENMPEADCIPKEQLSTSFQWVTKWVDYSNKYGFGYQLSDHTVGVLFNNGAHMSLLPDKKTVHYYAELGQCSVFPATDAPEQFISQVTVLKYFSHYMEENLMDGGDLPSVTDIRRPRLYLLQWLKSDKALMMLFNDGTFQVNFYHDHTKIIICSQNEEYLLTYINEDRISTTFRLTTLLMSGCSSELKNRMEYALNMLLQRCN

Substance	S129 phosphorylation in vitro, kinases normalized by activity units [1]	S129 phosphorylation, immunoblot (mAb 11A5), kinase:rAS 1:200 molar [1]	S87 phosphorylation, immunoblot (pAb ELADW-110), kinase:rAS 1:200 molar [1]	S129 phosphorylation, immunoblot (mAb 11A5), rank of signal [1]	phospho ser-129 in vitro, kinases normalized for molarity [1]	in vitro phosphorylation, autoradiography [2]	in vitro phosphorylation, autoradiography [3]	in vitro phosphorylation, autoradiography [4]	in vitro phosphorylation, autoradiography (beta synuclein)	Fold Change in Percent Synuclein Phosphorylation (ELISA, HEK-293 overexpression) [1] [fold]	Proportion of total synuclein that is phoshorylated at ser-129 (ELISA, HEK-293 overexpression) [1] [%]	in vitro biochemical assay, phosphorylation of synuclein [1]	in vitro kinase reaction, phosphorylation of alpha-synuclein at serine 129 [1]	in vitro phosphorylation, autoradiography [1]	phosphorylation of alpha-synuclein at S129 on co-expression in bacteria, mass spectrometry [1]
casein kinase 2 (CKII)	CKII was not detectable	Prominent signals came from GRK6, CKI, CKII and PLK2	–	–	–	–	–	–	–	–	–	–	–	–	–
casein kinase I (CKI)	CKI gave a modest signal	Prominent signals came from GRK6, CKI, CKII and PLK2	A signal was detected only with CKI phosphorylation	CKI>GRK6>PLK2>GRK4>GRK5>GRK2	roughly equivalent levels of phospho ser-129 between CKI, GRK6 and PLK2	–	–	–	–	–	–	–	–	–	–
Polo like kinase 2 (PLK2)	–	Prominent signals came from GRK6, CKI, CKII and PLK2	–	CKI>GRK6>PLK2>GRK4>GRK5>GRK2	roughly equivalent levels of phospho ser-129 between CKI, GRK6 and PLK2	the mutant alpha-synucleins were phosphorylated more at a given concentration (especially at lower concentrations) than WT	the mutant alpha-synucleins were phosphorylated more at a given concentration (especially at lower concentrations) than WT	the mutant alpha-synucleins were phosphorylated more at a given concentration (especially at lower concentrations) than WT	minimally against beta synuclein	21.2	42.3	PLK2 and PLK3 having extremely robust phosphorylation of synuclein	capable of phosphorylating alpha-synuclein specifically at serine 129 and did not phosphorylate serine 87 in vitro	PLK2 was found to be more active against wild-type alpha synuclein than beta synuclein	more than 95% phosphorylated
